From patent publication US20120129720, “APTAMER THAT RECOGNIZES PEPTIDE” (KANAGAWA PREFECTURAL HOSPITAL ORGANIZATION, published 2012)

T1: His-MIF (His-tag/T7 gene 10 leader/Xpress-MIF fusion) (UniProt P14174 P14174:1-115)
T1 chain: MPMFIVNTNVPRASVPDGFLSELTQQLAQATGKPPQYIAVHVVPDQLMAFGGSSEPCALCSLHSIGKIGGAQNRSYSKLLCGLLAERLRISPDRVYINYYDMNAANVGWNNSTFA

B1: X region SEQ 2330 (ssRNA)
RNA: GGGACGCUCACGUACGCUCACGCUUUAAUGAUCUGAUCGUGCUUCGCUGCGUAGUAUUGGUCAGUGCCUGGACGUGCAGU
modifications: 3' A20 tail for capture
B2: X region SEQ 2342 (ssRNA)
RNA: GGGACGCUCACGUACGCUCAUGACAUCUGAGGCUUUUUUCUUGGGGAAUUUUCCGAGACCUCAGUGCCUGGACGUGCAGU
modifications: 3' A20 tail for capture
B3: X region SEQ 2331 (ssRNA)
RNA: GGGACGCUCACGUACGCUCAGAGUCGUUAUCUCCUGUACUAAUCACCUACUGAUCGAGCAUCAGUGCCUGGACGUGCAGU
modifications: 3' A20 tail for capture
B4: X region SEQ 2341 (ssRNA)
RNA: GGGACGCUCACGUACGCUCAUGUCCGCUGUUAAAGAUCGCGACUCUGGGCCCUGAUCGAUUCAGUGCCUGGACGUGCAGU
modifications: 3' A20 tail for capture
B5: X region SEQ 2339 (ssRNA)
RNA: GGGACGCUCACGUACGCUCAUGCUGAUCGUUCGGUGAAUCAUUUCCUUACCUACCUACGUUCAGUGCCUGGACGUGCAGU
modifications: 3' A20 tail for capture
B6: X region SEQ 2329 (ssRNA)
RNA: GGGACGCUCACGUACGCUCAAAACCUGUGCUGAUCGCUGUUGGACAGUUCUACAUGCGCAUCAGUGCCUGGACGUGCAGU
modifications: 3' A20 tail for capture
B7: X region SEQ 2328 (ssRNA)
RNA: GGGACGCUCACGUACGCUCAAAUUGUCUUCGCGUUGUCUUGAAUGGGUAAUAGUAGACGAUCAGUGCCUGGACGUGCAGU
modifications: 3' A20 tail for capture
B8: X region SEQ 2336 (ssRNA)
RNA: GGGACGCUCACGUACGCUCAUCGAUUAGAAUACUCUUUGUGCGCCGUCGGCCUGAUCGUUCAGUGCCUGGACGUGCAGU
modifications: 3' A20 tail for capture
B9: X region SEQ 2338 (ssRNA)
RNA: GGGACGCUCACGUACGCUCAUGAGACUGAUCGUGACAACUCCUGUAUGUUCGAUCUCAUCUCAGUGCCUGGACGUGCAGU
modifications: 3' A20 tail for capture
B10: X region SEQ 2340 (ssRNA)
RNA: GGGACGCUCACGUACGCUCAUGUAUUUCUGUUAGUGCUCGGUCCUGCUGAUCGGUUAGACUCAGUGCCUGGACGUGCAGU
modifications: 3' A20 tail for capture
B11: X region SEQ 2335 (ssRNA)
RNA: GGGACGCUCACGUACGCUCACAGGCUGAUCGCUUCUUUACGUCUAAGUAUUGACUUUAGCUCAGUGCCUGGACGUGCAGU
modifications: 3' A20 tail for capture
B12: X region SEQ 2332 (ssRNA)
RNA: GGGACGCUCACGUACGCUCAUUAGACGUUCUCUACGUCCGUGCCGCCCUGAUCGAGCGACUCAGUGCCUGGACGUGCAGU
modifications: 3' A20 tail for capture
B13: X region SEQ 2327 (ssRNA)
RNA: GGGACGCUCACGUACGCUCAAGACUCCUGUGUUUCGGGUGUACUGUCACGAUUCGUUGUCUCAGUGCCUGGACGUGCAGU
modifications: 3' A20 tail for capture
B14: X region SEQ 2337 (ssRNA)
RNA: GGGACGCUCACGUACGCUCAUCGUCGUAGGCGUACUGAUCGAAUCGUACUUACUAUUGCGUCAGUGCCUGGACGUGCAGU
modifications: 3' A20 tail for capture
B15: X region SEQ 2334 (ssRNA)
RNA: GGGACGCUCACGUACGCUCACACCUAGAGCCUGAACUGCCUAAGCGCUGAUCGGCAUUUAUCAGUGCCUGGACGUGCAGU
modifications: 3' A20 tail for capture
B16: X region SEQ 2333 (ssRNA)
RNA: GGGACGCUCACGUACGCUCAAAUGACCCCGAUUCCCCUUUCGUGUUGUCUGAUCGCAGGCUCAGUGCCUGGACGUGCAGU
modifications: 3' A20 tail for capture

Biological target: T1, His-MIF (His-tag/T7 gene 10 …)
Assay: SPR; data not shown
Conditions: MIF 115 aa; ATGen

Binding result, binds:
B1
B2
B3
B4
B5
B6
B7
B8
B9
B10
B11
B12
B13
B14
B15
B16
